Assay results from paper PMC13061415.

Columns and labels:
[1] = target: muskelin CTLH-CRA domain (205–735 Δ248–625) (UniProt Q99PV3); experiment: ITC; conditions: for other: -TΔS / dG / other: ΔH: read off a plot
[2] = target: RanBP10 CTLH-CRA domain (315–608, Δ382–529), wild type (mouse); experiment: SEC-MALS; CTLH-CRA domain complexes co-expressed in E. coli and purified as complexes; Superdex 75 10/300 GL; 20 mM tricine pH 8.0, 500 mM NaCl, 1 mM TCEP
[3] = target: RanBP10 CTLH-CRA domain (315–608, Δ382–529), wild type; experiment: ITC; conditions: 160 µM muskelin + 16 µM RanBP10
[4] = target: RanBP10 CTLH-CRA domain (315–608, Δ382–529), wild type; experiment: ITC; conditions: 160 µM muskelin + 16 µM RanBP10; remark: listed apart in the source
[5] = target: Maea CTLH-CRA domain (156-279) (mouse) (UniProt Q4VC33); experiment: SEC-MALS; purified CTLH-CRA domains alone or mixed (RanBP10 and Twa1 variants with Maea or muskelin), final concentration 250 μM, Superdex 75 10/300 GL
Maea CTLH-CRA domain (156-279) (mouse), sequence (Q4VC33 156-279): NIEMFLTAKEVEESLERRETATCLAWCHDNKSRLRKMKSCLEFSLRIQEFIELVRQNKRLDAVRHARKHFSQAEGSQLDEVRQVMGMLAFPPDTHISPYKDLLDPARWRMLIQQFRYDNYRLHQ

[6] = target: muskelin CTLH-CRA domain (205–735 Δ248–625) (UniProt Q99PV3); experiment: ITC; conditions: 160 µM muskelin + 16 µM RanBP10
muskelin (1–735) (rat) = muskelin (1–735) (rat) (UniProt Q99PV3); experiment: ITC; competition: RanBP9-Twa1 or RanBP10-Twa1 complex (160 μM) titrated into pre-formed Twa1_52-muskelin or Twa1_52-Wdr26 complex (16 μM); 25°C; competitive binding model with the parameters of the first titration
Wdr26 (102–641) (mouse) = Wdr26 (102–641) (mouse) (UniProt Q8C6G8); experiment: as above
Wdr26 (102–641) (mouse), sequence (Q8C6G8 102-641): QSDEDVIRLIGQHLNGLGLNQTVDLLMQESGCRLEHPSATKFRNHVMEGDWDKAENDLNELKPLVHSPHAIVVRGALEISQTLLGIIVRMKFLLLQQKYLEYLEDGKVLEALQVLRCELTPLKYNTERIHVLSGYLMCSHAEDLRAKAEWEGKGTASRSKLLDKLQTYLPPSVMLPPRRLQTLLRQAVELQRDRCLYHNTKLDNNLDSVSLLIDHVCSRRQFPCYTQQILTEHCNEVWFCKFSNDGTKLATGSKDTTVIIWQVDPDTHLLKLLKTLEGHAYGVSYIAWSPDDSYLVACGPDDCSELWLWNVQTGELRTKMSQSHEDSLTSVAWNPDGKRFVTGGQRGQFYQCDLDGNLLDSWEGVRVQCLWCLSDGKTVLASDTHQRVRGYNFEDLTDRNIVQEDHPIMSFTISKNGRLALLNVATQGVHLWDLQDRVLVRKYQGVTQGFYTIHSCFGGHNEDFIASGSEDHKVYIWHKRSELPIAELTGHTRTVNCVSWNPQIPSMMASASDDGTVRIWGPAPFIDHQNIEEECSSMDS

[7] = target: RanBP10 CTLH-CRA domain Q519G (mouse); experiment: SEC-MALS; RanBP10 Q519G (Q547G) dilution series; molar masses of 0.3 ml peak fractions against concentration, one-site binding fit; dimer to monomers
[8] = target: RanBP10 CTLH-CRA domain (315–608, Δ382–529), wild type (mouse); experiment: ITC; muskelin CTLH-CRA (160 μM, syringe) titrated into RanBP10 or Twa1 CTLH-CRA variants (16 μM, cell); 25°C; 20 mM tricine pH 8.0, 500 mM NaCl, 1 mM TCEP; one-site model
[9] = 160 µM muskelin + 16 µM RanBP10 mutants
[10] = 160 µM muskelin + 16 µM RanBP10 mutants, parent: est. 4.1 kcal/mol
[11] = 160 µM muskelin + 16 µM RanBP10 mutants, parent: est. -11 kcal/mol
[12] = 160 µM muskelin + 16 µM RanBP10 mutants, parent: est. -16 kcal/mol
[13] = 160 µM muskelin + 16 µM Twa1 mutants

Substance: RanBP10 CTLH-CRA domain (315–608, Δ382–529), wild type Q519G
- Kd [1, 9]: 8.49 nM
- other: molar ratio n [1, 9]: 0.93
- other: -TΔS [1, 10]: 4.1 kcal/mol
- dG [1, 11]: -11 kcal/mol
- other: ΔH [1, 12]: -15 kcal/mol

Substance: muskelin CTLH-CRA domain, C-terminally shortened (205–719, Δ248–624) (from UniProt Q99PV3 205-719) (domain or fragment)
- stoichiometry N [2]: 1

Substance: muskelin CTLH-CRA domain (205–735 Δ248–625) (from UniProt Q99PV3) F686L
- Kd [3]: 56.7 nM
- Kd [4]: 56.7 nM
- other: molar ratio n [4]: 1.07
- other: -TΔS ([4]; parent: est. 4.1 kcal/mol, read off a plot): -1.6 kcal/mol
- dG ([4]; parent: est. -11 kcal/mol, read off a plot): -9.9 kcal/mol
- other: ΔH ([4]; parent: est. -16 kcal/mol, read off a plot): -8.2 kcal/mol

Substance: RanBP10 CTLH-CRA domain Q519G, F543L, Y548F, V556F (quadruple mutant) (from UniProt Q6VN19 315-608) (domain or fragment)
- stoichiometry N [5]: 1

Substance: Twa1 CTLH-CRA domain (58-190), wild type (from UniProt Q9D7M1) A125G; Q126R; T127del; Q128E; A130Q; L140K; M143L; E144Q; L147F; A148S; F152Y; F160V
- Kd [1, 13]: 247 nM
- other: molar ratio n [1, 13]: 1.05
- dG [1, 13]: -9 kcal/mol
- other: -TΔS [1, 13]: 4.3 kcal/mol
- other: ΔH [1, 13]: -13 kcal/mol

Substance: RanBP10 CTLH-CRA domain (315–608, Δ382–529), wild type F543L; V556F
- Kd [6]: 338 nM
- Kd [1, 9]: 338 nM
- other: molar ratio n [1, 9]: 0.98
- other: -TΔS [1, 10]: -0.5 kcal/mol
- dG [1, 11]: -8.9 kcal/mol
- other: ΔH [1, 12]: -8.4 kcal/mol

Substance: Twa1 CTLH-CRA domain (58-190), wild type (from UniProt Q9D7M1) A125G; Q126R; T127del; A130Q; L140K; M143L; E144K; L147F; F152Y
- Kd [1, 13]: 795 nM
- other: molar ratio n [1, 13]: 0.94
- dG [1, 13]: -8.3 kcal/mol
- other: -TΔS [1, 13]: -0.4 kcal/mol
- other: ΔH [1, 13]: -7.9 kcal/mol

Substance: RanBP10 CTLH-CRA domain (315–608, Δ382–529), wild type V556F
- other: molar ratio n [1, 9]: 0.8
- other: -TΔS [1, 10]: 5 kcal/mol
- dG [1, 11]: -11 kcal/mol
- other: ΔH [1, 12]: -16 kcal/mol

Substance: Twa1 CTLH-CRA domain (58-190), wild type (from UniProt Q9D7M1) A125G; Q126R; T127del; Q128E; A130Q; M143L; E144Q; L147F; A148S; F152Y
- Kd [1, 13]: 354 nM
- other: molar ratio n [1, 13]: 0.95
- dG [1, 13]: -8.8 kcal/mol
- other: -TΔS [1, 13]: 3.4 kcal/mol
- other: ΔH [1, 13]: -12 kcal/mol

Substance: RanBP10 (57–648)-Twa1 (1–228) complex (from UniProt Q9D7M1 1-228)
- Kd (muskelin (1–735) (rat)): 0.07 nM
- Kd (Wdr26 (102–641) (mouse)): 0.0623 nM

Substance: RanBP10 CTLH-CRA domain (315–608, Δ382–529), wild type Y548F; V556F
- Kd [6]: 298 nM
- Kd [1, 9]: 298 nM
- other: molar ratio n [1, 9]: 0.95
- other: -TΔS [1, 10]: -0.6 kcal/mol
- dG [1, 11]: -9 kcal/mol
- other: ΔH [1, 12]: -8.3 kcal/mol

Substance: RanBP10 CTLH-CRA domain (315–608, Δ382–529), wild type F543L
- Kd [6]: 83.7 nM
- Kd [1, 9]: 83.7 nM
- other: molar ratio n [1, 9]: 0.88
- other: -TΔS [1, 10]: -0.7 kcal/mol
- dG [1, 11]: -9.6 kcal/mol
- other: ΔH [1, 12]: -8.8 kcal/mol

Substance: RanBP10 CTLH-CRA domain (315–608, Δ382–529), wild type F543L; Y548F
- Kd [6]: 390 nM
- Kd [1, 9]: 390 nM
- other: molar ratio n [1, 9]: 0.91
- other: -TΔS [1, 10]: -3.3 kcal/mol
- dG [1, 11]: -8.8 kcal/mol
- other: ΔH [1, 12]: -5.4 kcal/mol

Substance: RanBP10 CTLH-CRA domain Q519G (domain or fragment)
- Kd [7]: 18 µM
- stoichiometry N [5]: 1

Substance: RanBP10 CTLH-CRA domain (315–608, Δ382–529), wild type Y548F
- Kd [6]: 54.8 nM
- Kd [1, 9]: 54.8 nM
- other: molar ratio n [1, 9]: 1.06
- other: -TΔS [1, 10]: 1.9 kcal/mol
- dG [1, 11]: -10 kcal/mol
- other: ΔH [1, 12]: -12 kcal/mol

Substance: muskelin CTLH-CRA domain (205–735 Δ248–625) (from UniProt Q99PV3 205-735) (domain or fragment)
- Kd [8]: 4.33 nM
